Measurements as given in article PMC4045939 (2014).

Biological target: T1, RSV M2 protein peptide on H-2Kd (mouse)
T1 peptide: SYIGSINNI
Experiment: in vitro CTL assay; CB6F1 splenocyte targets loaded with graded M2 peptide, E:T ratio of 50; EC50 from a 4-parameter non-linear fit; full-length, on cells

B1: TRBV13-2 (TCR)
alpha TRAV7-3*01 CDR3: CAVNSGYNKLTF
beta TRBV13-2*01 CDR3: CASGAGTGYAEQFF
EC50 of peptide: 0.243 nM

B2: TRBV13-1 (TCR)
alpha TRAV12-2*01 CDR3: CALRNNNNAPRF
beta TRBV13-1*02 CDR3: CASSDGGKEVFF
EC50 of peptide: 0.0571 nM
